Results: patent US20240158493A1 (MYTHIC THERAPEUTICS, published 2024)

T1: LRRC15 on U-87 MG (LRRC15+) cells (human, UniProt Q8TF66 22-581)
T1 construct: Endogenous LRRC15 of U-87 MG cells (ATCC HTB-14); also called cell surface LRRC15
T1 sequence: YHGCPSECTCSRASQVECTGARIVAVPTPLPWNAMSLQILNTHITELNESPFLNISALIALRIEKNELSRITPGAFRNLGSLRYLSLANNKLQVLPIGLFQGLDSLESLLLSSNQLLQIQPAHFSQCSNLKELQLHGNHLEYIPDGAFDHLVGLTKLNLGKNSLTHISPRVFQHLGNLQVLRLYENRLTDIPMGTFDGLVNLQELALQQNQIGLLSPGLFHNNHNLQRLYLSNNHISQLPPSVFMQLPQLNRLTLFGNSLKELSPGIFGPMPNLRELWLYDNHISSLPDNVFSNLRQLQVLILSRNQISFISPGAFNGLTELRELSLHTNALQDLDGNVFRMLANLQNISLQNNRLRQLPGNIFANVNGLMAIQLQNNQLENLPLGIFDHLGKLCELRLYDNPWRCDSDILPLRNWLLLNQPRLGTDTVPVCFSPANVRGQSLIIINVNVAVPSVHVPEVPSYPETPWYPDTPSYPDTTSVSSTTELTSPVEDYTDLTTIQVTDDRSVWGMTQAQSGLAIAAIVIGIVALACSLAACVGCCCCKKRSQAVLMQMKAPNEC


Molecular target: T1, LRRC15 on U-87 MG (LRRC15+) cells
Test: flow cytometry on U-87 MG (LRRC15+) cells, 60 nM to 1 pM
Experimental: FIGS. 40a-40b: Characterization of binding affinity for anti-LRRC15 mAbs. Anti-LRRC15 mAbs were assayed for their binding to U-87 MG (LRRC15+) cells.
Binding affinity of selected LRRC15 pH engineered antibody variants from Example 9 were measured on U-87 MG (LRRC15+) cells. 100,000 U-87 MG cells (ATCC HTB-14) were seeded per well in a 96 well deep well plate. Samrotamab and a pH engineered antibody variant were serially diluted at a 1:3 dilution in ice cold FC buffer (phosphate buffered saline (PBS), pH 7.4+2 mM ethylenediaminetetraacetic acid (EDTA)+2% (v/v) HI FBS). The plates were spun at 2,000 RPM for 2 minutes, the supernatant was removed, and 100 μL of diluted antibody was added to each well with final concentration ranging from 60 nM to 1 pM and incubated for 2 hours at 4° C. Post incubation, the cells were spun at 2000 rpm for 2 min and supernatant was discarded. Cells were washed twice with 500 μL of ice-cold FC buffer and resuspended with 100 μL of FC buffer. […] Post incubation, cells were washed with FC buffer and resuspended in 100 μL of FC buffer to read on a BD Accuri C6 flow cytometer. Binding affinity was measured as a dissociation constant KD by GraphPad Prism assuming Michaelis-Menten binding kinetics.

| IC50 [pM] | Binder |
| --- | --- |
| 228 | samrotamab (antibody, V domains shown, IgG; the entries called heavy and light chain hold the variable domains only; also called MYT0963) VH: EVQLVQSGAEVKKPGASVKVSCKASGYKFSSYWIEWVKQAPGQGLEWIGEILPGSDTTNYNEKFKDRATFTSDTSINTAYMELSRLRSDDTAVYYCARDRGNYRAWFGYWGQGTLVTVSS VL: DIQMTQSPSSLSASVGDRVTITCRASQDISNYLNWYQQKPGGAVKFLIYYTSRLHSGVPSRFSGSGSGTDYTLTISSLQPEDFATYFCQQGEALPWTFGGGTKVEIK |
| 484 | MYT0971 (antibody, V domains shown, IgG) VH: EVQLVQSGAEVKKPGASVKVSCKASGYKFSSYHIEWVKQAPGQGLEWIGEILPGSDTTNYNEKFKDRATFTSDTSINTAYMELSRLRSDDTAVYYCARDRGNYRAWFGYWGQGTLVTVSS VL: DIQMTQSPSSLSASVGDRVTITCRASQDISNYLNWYQQKPGGAVKFLIYYTSRLHSGVPSRFSGSGSGTDYTLTISSLQPEDFATYFCQQGEALPWTFGGGTKVEIK |
